Assay: soluble on expression in E. coli; label from the status in PepcDB or PDB records

Soluble on expression in E. coli, not soluble:
MGSDKIHHHHHHMRIILYLGKGGVGKTTVSASTATAIARSGKRVLIMSTDVAHSLADAFGVELSSTPVEVEKNLFAMEVNILAEIRENWTELYSYFSSILMHDGTNEIVAEELAIVPGMEEMISLRYIWKAAKSGKYDAVVVDAAPTGETMRLLGMPESYGWYSEKIGGWHSKAIGFAAPLLSRFMPKKNIFKLMPEVNEHMKELHGMLQDKSITTFRVVLNPENMVIKEALRVQTYLNLFGYKLDAAVVNKVLPSNSSDPYLQALIDQQAKYLRVIDNCFYPVPIFRAMQSSKEVISTDRLYDLSQELFSGRNPMEVLYSNDKTQTLEKINGKYVLSLYLPNVEVDKLAVNIKGDELLVDINNFRKSIVLPNVLVGRKTEGADFEQGTLNITFAN, MGSDKIHHHHHHMRIKAVSSLVGGEVLAEPILTEKNDILIPNGTRIKPDYVPLIESLGIESVMVEDPYENYESPNSIVDPAIFDKYVKKVRRLMESHIYHDGKSLKEFEIIANDIVHDINDMPYDVIVDIKERNSDLYEHTVMVTLLSVLVARKLKLDEKRKYNIAVGCLLHDIGLRFIVTRYKNRDFSNANPAELFEYKKHTILGYSALDEENWIAPISMKMVLSHHENMAGTGFPMKQKNKELECRIIQACDAFDSLISGMECKRICVQEAINQIKENDGGRFDNKIIKCLLSSIARYPVGTTVKTNAEEEGVVVSQTVDPENPIIMIFGNENNGKLMLHNRLNLMLDKNISILQVI, MGSDKIHHHHHHMRIVHISDLHFGEELIREKVEKAVRQINEIEPDLLVITGDLSCWGIHSEMRDAYETLLDLKPDYIAVPGNHDARNIGYEFFQLYFGETKKYWKNDVVSLIAADSTQPDLDDGYIGKEQRDWIVSKIRKDRFNILALHHHIAPIPKTGRERNVLIDAGEMVELLIANGISAVLAGHRHMPYSLRLMRTHVIHAGTLGSFKVLGMPDHNYNVIEIKDNTLTLKLRFVDYGEVEIGRYTINPETPESISVYQRIAKPKKVLFLSRSNDCRTKIAEAIFNHISPNNMLAVSAGIEPAQDLDLRAVATMRELGLKINGKPRKFSEDMVSDFDAIVEFDELGVGEFWDVKKPSSAEEYREVRSEIWRRVEELVKRLLA, MGSDKIHHHHHHMRIVNDVKKILFLAANPQNTVRLRLDKEVEEIRTTLQLSVNRDRFVIESRGAVRPDDLQQYMYNLKPQIVHFSGHGGGEYGLAFEDENGAEQPVSTDALAKFFQLFAGEVNCVVLNACYASVQAEAIAQYIPYVVGMNQAIGDEAARQFAQGFYRAIWDNRSIEDAFASGVNAIALDGIPEDLTPVLLRQADRVTTQTIPSNSVSLESPDGQVRIDSRFYVHSSYEERCYAEVKKPGSLIRIKSPHNMGKSSLMVRVLGYAAQLGYRTVTLNLEQVNQKFFNDLDKYMQWFCASVGKPLGVRIKIEEYWDDIFGANDNSTDYFEKYLLDDTEPPLVVAIDNFDRVFKYPDIETDFCGLLRGWHERSRSNQLWGKLRFVIVYSQEPYLQKDINQSPFNVGLPIELGEFTTAQVQELIRLHGLDWSGQFVKQFMDLIGGHPYLVRSALYHIAAGDLTLEEFLRTAPTEAGIYSDYLLGHLKSLEDYPTLGAAMKTVVTSEFPVRLRSEEAFRVWLCGLRITSSPDANCIVNIFAIA, MGSDKIHHHHHHMRKKPLTIFSDGTLTRRENTLYFESAKGRKPLAIEGIYDIYIYGHVNITSQALHYIAQKGILIHFFNHYGYYDGTFYPRETLLSGDLIIRQAEHYLNKEKRLFLAKSFVTGGTKNMERNLKNWGIKAKLSDYLDELNDARKITEIMNVEARIRQEYYAKWDENLPEEFKIVKRTRRPPKNEMNALISFLNSRLYATIITEIYNTQLAPTISYLHEPSERRFSLSLDLSEIFKPIIADRVANRLVKKGSLKKEHFREDLNGVLLTEEGMKIVTKAYNEELQKSVKHPKIGSNVTRQRLIRLEAYKLIKHLVGVEEYKPLVAWF

From the DeepSol protein solubility set
